Measurements published in article PMC10876938, “In vitro SELEX and application of an African swine fever virus (ASFV) p30 protein specific aptamer”.

Biological target: ASFV p30 (African swine fever virus, UniProt P34204 1-204)
Experiment: enzyme-linked aptamer adsorbed assay; […] (binding buffer not stated); […], room temperature, 30 min; […]
Details: protein: commercial, label: 5'-biotin
[1] = hairpin (M-fold predicted for parent)

Chain of ASFV p30 (P34204 whole entry): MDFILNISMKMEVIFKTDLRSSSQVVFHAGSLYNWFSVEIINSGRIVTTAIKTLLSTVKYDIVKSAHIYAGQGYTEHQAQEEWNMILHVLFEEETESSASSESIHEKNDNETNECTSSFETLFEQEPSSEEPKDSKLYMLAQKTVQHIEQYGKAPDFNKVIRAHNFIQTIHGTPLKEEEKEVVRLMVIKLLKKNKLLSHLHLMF

Row | Binder | Kd [1] [nM] | other results
1 | ATTGGCACTCCACGCATCTATGCGTGCTACCGTGAA (ssDNA) [AptNC] |  | binding result: no binding
2 | Atc-20 (ssDNA) DNA: CACGCATAGGGTCGACGGTGCCGTCCGTGTTCACACTCCCATTTGGGTGGCCTATGCGTG | 0.14 ± 0.01 | 
3 | GGGTCGACGGTGCCGTCCGTGTTCACACTCCCATTTGGGTGGCC (ssDNA) [Atc-34] | 0.266 ± 0.068 | 
4 | Apt A4 (biotin) (ssDNA) DNA: ATTGGCACTCCACGCATAGGGTCGACGGTGCCGTCCGTGTTCACACTCCCATTTGGGTGGCCTATGCGTGCTACCGTGAA |  | Kd (hairpin (M-fold predicted)): 0.17 ± 0.0062 nM
5 | Atc-28 (ssDNA) DNA: CATAGGGTCGACGGTGCCGTCCGTGTTCACACTCCCATTTGGGTGGCCTATG | 0.153 ± 0.0003 | 
